Test results: article PMC3861479, “LipL41, a Hemin Binding Protein from Leptospira santarosai serovar Shermani” (PLoS ONE, 2013)
Substitutions are numbered along the chain they refer to. Numbers in names are those of the source.

Columns and labels:
[1] = target: the molecule itself; test: negative-stain transmission electron microscopy; 0.1 mg/ml LipL41 on a glow-discharged copper grid, 2% uranyl acetate; class averages with EMAN2
[2] = target: the molecule itself; test: SEC + AUC; LipL41-C100 in solution; data not shown

B1: LipL41 C140A/C220A (natural protein)
chain: AATVDVEYPVFPKDKEGRALQKFLGTIRNVGLAVEPPKKSLWEAIFGEGSSFIDQMPSKVFEAFDKESYYKLTDLSKRADILNEATLSLTGITKSRAKIGNLIGAEAILYIGYQKPYTEASTENKIDAVAAGIKVAGFVASAATGKDVNTGNDPVSKPTGVRMMLIPLDATLIKVETGEVKKAVVSSPAKIFNSVGNLEAPSILDSFGQGLDEAAAYIKGRLSPIVKTERIKVFVKDEDEEVKELLQEGYEEIVGETPSFKKAKEAWEKADKKAKGQSWGAKANLATYYFSIGDFEKSIKLYEEAMKLKDADKSYLRELRKRVEATFAVDESNAK
notes: also called cysteine double mutant; HRM-mutated LipL41; source: E. coli, expression and purification similar to that of the wildtype
B1: binds [1].

B2: LipL41 C220A (natural protein)
chain: B1 chain with A120C
notes: also called HRM-mutated LipL41; source: E. coli, expression and purification similar to that of the wildtype
B2: binds [1].

B3: recombinant LipL41 (Ala21 - Lys355) with an N-terminal His6-tag (natural protein)
chain: B1 chain with A120C, A200C
notes: also called LipL41 wildtype; pRSET-LipL41; source: E. coli BL21(DE3), purified (Ni-NTA); copies: 36
B3 was tested, and the “stoichiometry N” value [1] was 36.

B4: LipL41 C140A (natural protein)
chain: B1 chain with A200C
notes: as for B2
B4: binds [1].

B5: LipL41-C100 with a TPR-containing fragment of residues 256-355 (domain or fragment)
chain: KDEDEEVKELLQEGYEEIVGETPSFKKAKEAWEKADKKAKGQSWGAKANLATYYFSIGDFEKSIKLYEEAMKLKDADKSYLRELRKRVEATFAVDESNAK
notes: source: E. coli, expression and purification similar to that of the wildtype
With B5 the “stoichiometry N” value [2] was 2.
